Target: human mesothelin (human, UniProt Q13421)
Assay: FACS, OVCAR-3 cells

Chain of human mesothelin (Q13421 other isoform, or with tags, fused parts or gaps): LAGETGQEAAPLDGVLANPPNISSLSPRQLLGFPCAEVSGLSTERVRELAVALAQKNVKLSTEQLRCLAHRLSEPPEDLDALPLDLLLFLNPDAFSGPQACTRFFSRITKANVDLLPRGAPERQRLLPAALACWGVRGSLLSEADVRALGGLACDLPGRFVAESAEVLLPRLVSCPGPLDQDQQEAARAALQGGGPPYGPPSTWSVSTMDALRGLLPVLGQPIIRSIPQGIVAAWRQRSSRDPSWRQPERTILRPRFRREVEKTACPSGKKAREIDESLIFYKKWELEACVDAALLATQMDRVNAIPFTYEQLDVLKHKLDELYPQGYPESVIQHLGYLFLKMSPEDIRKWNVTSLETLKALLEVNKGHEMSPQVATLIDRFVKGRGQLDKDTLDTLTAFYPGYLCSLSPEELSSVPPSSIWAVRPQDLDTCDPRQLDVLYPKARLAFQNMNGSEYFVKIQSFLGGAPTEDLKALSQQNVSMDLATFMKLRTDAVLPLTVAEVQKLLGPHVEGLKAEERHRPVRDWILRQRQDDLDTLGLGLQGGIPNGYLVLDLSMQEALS

Row | Binder | EC50 [nM]
1 | MOR06631 IgG (antibody, V domains shown) VH: QVQLVQSGAEVKKPGESLKISCKGSGYSFTNYWIGWVRQMPGKGLEWMGFIWPVDSWTQYSPSFQGQVTISADKSISTAYLQWSSLKASDTAMYYCARYGHGMYGGALDVWGQGTLVTVSS VL: DIVLTQSPATLSLSPGERATLSCRASQSVRSSRLAWYQQKPGQAPRLLIYGASKRATGVPARFSGSGSGTDFTLTISSLEPEDFATYYCQQYYDFPPTFGQGTKVEIK | 0.96
2 | MOR06642 IgG (antibody, V domains shown) VH: QVQLVQSGAEVKKPGESLKISCKGSGYSFTNYWIGWVRQMPGKGLEWMGVIMPSDSYTRYSPSFQGQVTISADKSISTAYLQWSSLKASDTAMYYCARYGHGMYGGALDVWGQGTLVTVSS VL: not shown | 0.54
3 | MOR06643 IgG (antibody, V domains shown) VH: QVQLVESGGGLVQPGGSLRLSCAASGFTFSDYAMSWVRQAPGKGLEWVSAIMYDSSSTFYADSVKGRFTISRDNSKNTLYLQMNSLRAEDTAVYYCARINYIYKGVHFDYWGQGTLVTVSS VL: not shown | 1.86
4 | MOR06638 IgG (antibody, V domains shown) VH: QVQLVQSGAEVKKPGASVKVSCKASGYTFTGNYINWVRQAPGQGLEWMGIINPHGGDTKYAQKFQGRVTMTRDTSISTAYMELSSLRSEDTAVYYCARWHHGTWIFDYWGQGTLVTVSS VL: DIVLTQPPSVSGAPGQRVTISCSGSSSNIGSNYVSWYQQLPGTAPKLLIYNDNQRPSGVPDRFSGSKSGTSASLAITGLQSEDEADYYCSSWDRADGSYVFGGGTKLTVL | 4.19

Further lines, results first:

Row | EC50 [nM] | Binder
5 | 1.06 | MOR07265 IgG (antibody, V domains shown) VH: QVQLVQSGAEVKKPGESLKISCKGSGYSFTNYWIGWVRQMPGKGLEWMGFIWPVDSWTQYSPSFQGQVTISADKSISTAYLQWSSLKASDTAMYYCARYGHGMYGGALDVWGQGTLVTVSS VL: not shown
6 | 1.4 | MOR06669 IgG (antibody, V domains shown) VH: QVQLVQSGAEVKKPGESLKISCKGSGYSFTNYWIGWVRQMPGKGLEWMGIIWPIDSFTQYSPSFQGQVTISADKSISTAYLQWSSLKASDTAMYYCARYGHGMYGGALDVWGQGTLVTVSS VL: DIVLTQSPATLSLSPGERATLSCRASQSVRSSRLAWYQQKPGQAPRLLIYGASKRATGVPARFSGSGSGTDFTLTISSLEPEDFATYYCQQYYDFPPTFGQGTKVEIK
7 | 1.35 | MOR07111 IgG (antibody, V domains shown) VH: QVQLVQSGAEVKKPGESLKISCKGSGYSFTNYWIGWVRQMPGKGLEWMGVIMPSDSYTRYSPSFQGQVTISADKSISTAYLQWSSLKASDTAMYYCARYGHGMYGGALDVWGQGTLVTVSS VL: DIVLTQSPATLSLSPGERATLSCRASQSVRSSRLAWYQQKPGQAPRLLIYGASKRATGVPARFSGSGSGTDFTLTISSLEPEDFAVYYCQQFYSKPITFGQGTKVEIK
